Experimental data published in the RNAGym collection of RNA variant scans (doi:10.7554/elife.80360).

B1: CPEB3 Ribozyme (parent)
chain: GGGGGCCACAGCAGAAGCGUUCACGUCGCGGCCCCUGUCAGAUUCUGGUGAAUCUGCGAAUUCUGCUGU

Variants of: B1
Assay: self-cleavage, relative activity (ratio to wild type); higher = more cleavage; co-transcriptional

For UGGGGCCACAGCAGAAGCGUUCACGUCACGGCCCCUGUCAGAUUCUGGUGAAUCUGCGAAUUCUGCUGU, which self-cleavage is on record?
Its self-cleavage is 0.0369.

For UGGGGCCACAGCAGAAGCGUUCACGUCCCGGCCCCUGUCAGAUUCUGGUGAAUCUGCGAAUUCUGCUGU, which self-cleavage is on record?
Its self-cleavage is 0.0671.

Which self-cleavage does the source give for UGGGGCCACAGCAGAAGCGUUCACGUCGCGGCCCCUGUCAGAUUCUGGUGAAUCUGCGAAUUCUGGUGU here?
Its self-cleavage is 0.0803.

For UGGGGCCACAGCAGAAGCGUUCACGUCGCGGCCCCUGUCAGAUUCUGGUGAAUCUGCGAAUUCUGAUGU, which self-cleavage is on record?
Its self-cleavage is 0.0594.

Which self-cleavage does the source give for UGGGGCCACAGCAGAAGCGUUCACGUCGCGGCCCCUGUCAGAUUCUGGUGAAUCUGCGAAUUAUGCUGU here?
Its self-cleavage is 0.101.

Which self-cleavage does the source give for UGGGGCCACAGCAGAAGCGUUCACGUCGCGGCCCCUGUCAGAUUCUGGUGAAUCUGCGAAUUUUGCUGU here?
Its self-cleavage is 0.0897.

With UGGGGCCACAGCAGAAGCAUUCACGUCGCGGCCCCUGUCAGAUUCUGGUGAAUCUGCGAAUUCUGCUGU as the variant, how does the self-cleavage read?
Its self-cleavage is 0.0502.

For UGGGGCCACAGCAGAAGCGUUCACGUCGCGGCCCCUGUCAGAUUCUGGUGAAUCUCCGAAUUCUGCUGU, which self-cleavage is on record?
The self-cleavage was 0.105.

With UGGGGCCACAGCAGAAGCGUUCACGUCGCGGCCCCUGUCAGAUUCUGGUGAAUCUUCGAAUUCUGCUGU as the variant, how does the self-cleavage read?
The self-cleavage was 0.108.

Which self-cleavage does the source give for UGGGGCCACAGCAAAAGCGUUCACGUCGCGGCCCCUGUCAGAUUCUGGUGAAUCUGCGAAUUCUGCUGU here?
The self-cleavage was 0.118.

For UGGGGCCACAGCACAAGCGUUCACGUCGCGGCCCCUGUCAGAUUCUGGUGAAUCUGCGAAUUCUGCUGU, which self-cleavage is on record?
The self-cleavage was 0.133.

For UGGGGCCACAGCAGAAGCGUUCACGUCGCGGCCCCUGUCAGAUUCUGGUCAAUCUGCGAAUUCUGCUGU, which self-cleavage is on record?
Its self-cleavage is 0.0733.

For UGGGGCCACAGCAGAAGCGUUCACGUCGCGGCCCCUGUCAGAUUCUGGUUAAUCUGCGAAUUCUGCUGU, which self-cleavage is on record?
The self-cleavage was 0.056.

For UGGGGCCACAGCAGAAGCGUUCACGUCGCGACCCCUGUCAGAUUCUGGUGAAUCUGCGAAUUCUGCUGU, which self-cleavage is on record?
Its self-cleavage is 0.0918.

Which self-cleavage does the source give for UGGGGCCACAGCAGAAGCGUUCACGUCGCGUCCCCUGUCAGAUUCUGGUGAAUCUGCGAAUUCUGCUGU here?
The self-cleavage was 0.0933.

Which self-cleavage does the source give for UGGGGCCACAGCAGAAGCGUUCACGUCGCGCCCCCUGUCAGAUUCUGGUGAAUCUGCGAAUUCUGCUGU here?
The self-cleavage was 0.0835.

With UGGGGCCACAGCAGAAGCGUUCACGUCGCGGCCCCUGUCAGAUUCUGGUGAAUCUGUGAAUUCUGCUGU as the variant, how does the self-cleavage read?
The self-cleavage was 0.0565.

For UGGGGCCACAGCAGAAGCGUUCACGUCGCGGCCCCUGUCAGAUUCUGCUGAAUCUGCGAAUUCUGCUGU, which self-cleavage is on record?
Its self-cleavage is 0.0782.

With UGGGGCCACAGCAGAAGCGUUCACGUCGCGGCCCCUGUCAGAUUCUGAUGAAUCUGCGAAUUCUGCUGU as the variant, how does the self-cleavage read?
The self-cleavage was 0.192.

For UGGGGCCACAGCAGAAGCGUUCACGUCGCGGCCCCUGUCAGAUUCUGUUGAAUCUGCGAAUUCUGCUGU, which self-cleavage is on record?
The self-cleavage was 0.079.

For UGGGGCCACAGCAGAAGCGUUCACGUCGCCGCCCCUGUCAGAUUCUGGUGAAUCUGCGAAUUCUGCUGU, which self-cleavage is on record?
The self-cleavage was 0.0755.

Which self-cleavage does the source give for UGGGGCCACAGCAGAAGCGUUCACGUCGCUGCCCCUGUCAGAUUCUGGUGAAUCUGCGAAUUCUGCUGU here?
Its self-cleavage is 0.0366.

Which self-cleavage does the source give for UGGGGCCACAGCAGAAUCGUUCACGUCGCGGCCCCUGUCAGAUUCUGGUGAAUCUGCGAAUUCUGCUGU here?
Its self-cleavage is 0.0803.

For UCGGGCCACAGCAGAAGCGUUCACGUCGCGGCCCCUGUCAGAUUCUGGUGAAUCUGCGAAUUCUGCUGU, which self-cleavage is on record?
The self-cleavage was 0.333.

With UAGGGCCACAGCAGAAGCGUUCACGUCGCGGCCCCUGUCAGAUUCUGGUGAAUCUGCGAAUUCUGCUGU as the variant, how does the self-cleavage read?
Its self-cleavage is 0.0657.

Which self-cleavage does the source give for UGGGCCCACAGCAGAAGCGUUCACGUCGCGGCCCCUGUCAGAUUCUGGUGAAUCUGCGAAUUCUGCUGU here?
Its self-cleavage is 0.0789.

Which self-cleavage does the source give for UGGGGCCACAGCAGAAGCGUUCACGUCGCGGCCCCUAUCAGAUUCUGGUGAAUCUGCGAAUUCUGCUGU here?
The self-cleavage was 0.0613.

For UGCGGCCACAGCAGAAGCGUUCACGUCGCGGCCCCUGUCAGAUUCUGGUGAAUCUGCGAAUUCUGCUGU, which self-cleavage is on record?
The self-cleavage was 0.0566.

For UGAGGCCACAGCAGAAGCGUUCACGUCGCGGCCCCUGUCAGAUUCUGGUGAAUCUGCGAAUUCUGCUGU, which self-cleavage is on record?
The self-cleavage was 0.04.

Which self-cleavage does the source give for UGUGGCCACAGCAGAAGCGUUCACGUCGCGGCCCCUGUCAGAUUCUGGUGAAUCUGCGAAUUCUGCUGU here?
Its self-cleavage is 0.0448.

For UGGGGCCACAACAGAAGCGUUCACGUCGCGGCCCCUGUCAGAUUCUGGUGAAUCUGCGAAUUCUGCUGU, which self-cleavage is on record?
The self-cleavage was 0.0662.

For UGGCGCCACAGCAGAAGCGUUCACGUCGCGGCCCCUGUCAGAUUCUGGUGAAUCUGCGAAUUCUGCUGU, which self-cleavage is on record?
The self-cleavage was 0.0734.

Which self-cleavage does the source give for UGGUGCCACAGCAGAAGCGUUCACGUCGCGGCCCCUGUCAGAUUCUGGUGAAUCUGCGAAUUCUGCUGU here?
The self-cleavage was 0.127.

With UGGAGCCACAGCAGAAGCGUUCACGUCGCGGCCCCUGUCAGAUUCUGGUGAAUCUGCGAAUUCUGCUGU as the variant, how does the self-cleavage read?
Its self-cleavage is 0.112.

Which self-cleavage does the source give for UGGGGCCACAGCAGAAGCGUUCACGUCGCGGCCCCUGUCACAUUCUGGUGAAUCUGCGAAUUCUGCUGU here?
The self-cleavage was 0.036.

Which self-cleavage does the source give for UGGGGCCACAGCAGAAGCGUUCACGUCGCGGCCCCUGUCAAAUUCUGGUGAAUCUGCGAAUUCUGCUGU here?
Its self-cleavage is 0.123.

Which self-cleavage does the source give for UGGGGCCACAGCAGAAGCGUUCACGUCGCGGCCCCUGUCAUAUUCUGGUGAAUCUGCGAAUUCUGCUGU here?
The self-cleavage was 0.116.

With UGGGGCCACAGCAGAAGCGUUCACGUCGCGGCCCCUGUCAGAUUCUAGUGAAUCUGCGAAUUCUGCUGU as the variant, how does the self-cleavage read?
The self-cleavage was 0.117.

With UGGGGCCACAGCAGAAGCGUUCACGUCGCGGCCCCUGUCAGAUUCUUGUGAAUCUGCGAAUUCUGCUGU as the variant, how does the self-cleavage read?
The self-cleavage was 0.14.
